Measured values reported in IntAct's records for PubMed 22020124.

B1: Centrosomal P4.1-associated protein (Homo sapiens), Q9HC77 (parent)
chain: MFLMPTSSELNSGQNFLTQWMTNPSRAGVILNRGFPILEADKEKRAAVDISTSFPIKGTHFSDSFSFINEEDSLLEEQKLESNNPYKPQSDKSETHTAFPCIKKGPQVAACHSAPGHQEENKNDFIPDLASEFKEGAYKDPLFKKLEQLKEVQQKKQEQLKRQQLEQLQRLMEEQEKLLTMVSGQCTLPGLSLLPDDQSQKHRSPGNTTTGERATCCFPSYVYPDPTQEETYPSNILSHEQSNFCRTAHGDFVLTSKRASPNLFSEAQYQEAPVEKNNLKEENRNHPTGESILCWEKVTEQIQEANDKNLQKHDDSSEVANIEERPIKAAIGERKQTFEDYLEEQIQLEEQELKQKQLKEAEGPLPIKAKPKQPFLKRGEGLARFTNAKSKFQKGKESKLVTNQSTSEDQPLFKMDRQQLQRKTALKNKELCADNPILKKDSKARTKSGSVTLSQKPKMLKCSNRKSLSPSGLKIQTGKKCDGQFRDQIKFENKVTSNNKENVTECPKPCDTGCTGWNKTQGKDRLPLSTGPASRLAAKSPIRETMKESESSLDVSLQKKLETWEREKEKENLELDEFLFLEQAADEISFSSNSSFVLKILERDQQICKGHRMSSTPVKAVPQKTNPADPISHCNRSEDLDHTAREKESECEVAPKQLHSLSSADELREQPCKIRKAVQKSTSENQTEWNARDDEGVPNSDSSTDSEEQLDVTIKPSTEDRERGISSREDSPQVCDDKGPFKDTRTQEDKRRDVDLDLSDKDYSSDESIMESIKHKVSEPSRSSSLSLSKMDFDDERTWTDLEENLCNHDVVLGNESTYGTPQTCYPNNEIGILDKTIKRKIAPVKRGEDLSKSRRSRSPPTSELMMKFFPSLKPKPKSDSHLGNELKLNISQDQPPGDNARSQVLREKIIELETEIEKFKAENASLAKLRIERESALEKLRKEIADFEQQKAKELARIEEFKKEEMRKLQKERKVFEKYTTAARTFPDKKEREEIQTLKQQIADLREDLKRKETKWSSTHSRLRSQIQMLVRENTDLREEIKVMERFRLDAWKRAEAIESSLEVEKKDKLANTSVRFQNSQISSGTQVEKYKKNYLPMQGNPPRRSKSAPPRDLGNLDKGQAASPREPLEPLNFPDPEYKEEEEDQDIQGEISHPDGKVEKVYKNGCRVILFPNGTRKEVSADGKTITVTFFNGDVKQVMPDQRVIYYYAAAQTTHTTYPEGLEVLHFSSGQIEKHYPDGRKEITFPDQTVKNLFPDGQEESIFPDGTIVRVQRDGNKLIEFNNGQRELHTAQFKRREYPDGTVKTVYANGHQETKYRSGRIRVKDKEGNVLMDTEL
partner: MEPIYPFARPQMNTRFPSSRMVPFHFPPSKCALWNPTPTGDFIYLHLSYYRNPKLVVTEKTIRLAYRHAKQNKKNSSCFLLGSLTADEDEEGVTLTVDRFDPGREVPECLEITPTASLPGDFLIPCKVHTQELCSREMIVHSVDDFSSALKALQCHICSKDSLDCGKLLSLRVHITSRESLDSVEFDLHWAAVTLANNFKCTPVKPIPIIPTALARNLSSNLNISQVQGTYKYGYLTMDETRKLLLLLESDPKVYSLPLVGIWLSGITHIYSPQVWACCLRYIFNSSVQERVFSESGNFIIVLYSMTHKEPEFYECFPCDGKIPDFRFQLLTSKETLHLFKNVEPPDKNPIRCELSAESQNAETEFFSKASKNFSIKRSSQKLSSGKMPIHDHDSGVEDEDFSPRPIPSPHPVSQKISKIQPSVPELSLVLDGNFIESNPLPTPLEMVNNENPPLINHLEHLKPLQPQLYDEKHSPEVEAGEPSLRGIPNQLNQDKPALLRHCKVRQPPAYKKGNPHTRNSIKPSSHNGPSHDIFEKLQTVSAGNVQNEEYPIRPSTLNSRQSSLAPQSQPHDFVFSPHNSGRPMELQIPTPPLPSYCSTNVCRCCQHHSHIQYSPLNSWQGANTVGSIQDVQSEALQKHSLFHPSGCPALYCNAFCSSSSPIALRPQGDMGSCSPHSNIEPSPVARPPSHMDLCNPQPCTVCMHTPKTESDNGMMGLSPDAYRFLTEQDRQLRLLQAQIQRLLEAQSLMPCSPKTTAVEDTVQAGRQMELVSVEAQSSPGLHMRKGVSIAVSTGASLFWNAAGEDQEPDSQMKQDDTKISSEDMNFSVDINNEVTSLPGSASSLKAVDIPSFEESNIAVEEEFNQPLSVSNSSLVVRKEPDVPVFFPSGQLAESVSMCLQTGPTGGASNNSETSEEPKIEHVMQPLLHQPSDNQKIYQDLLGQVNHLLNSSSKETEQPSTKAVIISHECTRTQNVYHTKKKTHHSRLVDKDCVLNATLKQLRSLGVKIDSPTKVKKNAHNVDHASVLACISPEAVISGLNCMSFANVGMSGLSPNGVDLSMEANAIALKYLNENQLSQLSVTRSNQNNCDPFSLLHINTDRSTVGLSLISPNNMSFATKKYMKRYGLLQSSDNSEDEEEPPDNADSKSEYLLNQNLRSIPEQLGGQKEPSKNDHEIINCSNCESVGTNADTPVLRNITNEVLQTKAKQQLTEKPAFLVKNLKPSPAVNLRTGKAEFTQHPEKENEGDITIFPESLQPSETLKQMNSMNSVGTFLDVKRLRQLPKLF

Variants of: B1
Conditions: with stil_human STIL

Row | effect of a mutation on the interaction | Variant
1 | decreasing interaction | E1235V

Variants of: B1
Conditions: with stil_human STIL
Remark: another data set of the same source

Row | effect of a mutation on the interaction | Variant
2 | disrupting interaction | E1235V
